Results reported in US20150344570A1 (published 2015).

Experiments:
[1] = target: T1, FcγRIIb, extracellular domain with C-terminal His tag (human, UniProt P31994 43-217); assay: SPR (Biacore), relative binding vs GpH7-A5/GpH7-B3/GpL16-k0
T1 construct: extracellular domain; also called FcgRIIb; 2b; not shown: His tag at the C terminus
T1 sequence (looked up): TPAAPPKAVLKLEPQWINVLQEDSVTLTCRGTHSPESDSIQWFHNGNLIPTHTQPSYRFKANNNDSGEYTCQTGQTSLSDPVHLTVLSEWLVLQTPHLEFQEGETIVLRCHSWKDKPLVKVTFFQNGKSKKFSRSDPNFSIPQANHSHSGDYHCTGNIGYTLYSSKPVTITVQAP

[2] = target: T2, FcγRIIa H (FcγRIIa, allotype with His at position 131), extracellular domain with C-terminal His tag (human, UniProt P12318 34-217); assay: as above
T2 construct: extracellular domain; also called FcgRIIa H; 2aH; not shown: His tag at the C terminus
T2 sequence (looked up): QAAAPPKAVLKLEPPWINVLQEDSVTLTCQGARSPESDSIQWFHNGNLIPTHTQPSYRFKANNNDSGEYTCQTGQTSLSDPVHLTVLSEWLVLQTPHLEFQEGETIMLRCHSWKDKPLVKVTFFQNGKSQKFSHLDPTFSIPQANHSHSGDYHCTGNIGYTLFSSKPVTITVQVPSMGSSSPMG

[3] = target: T2, FcγRIIa H (FcγRIIa, allotype with His …); assay: SPR (Biacore); He/Con_2aH divided by He/Con_2b (FcγRIIb)

Binder	He/Con_2b [1]	He/Con_2aH [2]	He_2aH/2b (IIaH/IIb) [3] [ratio]
GpH7-A5/GpH7-B3 variant A327_09D/GpL16-k0 (antibody, human IgG1, kappa, Heterodimerized anti-glypican-3 IgG1; mutation in one H chain only; also called He Ab) heavy 1: not shown heavy 2: not shown light: DIVMTQSPLSLPVTPGEPASISCQASESLVHSNRNTYLHWYLQKPGQSPQLLIYKVSNRFSGVPDRFSGSGSGTDFTLKISRVEAEDVGVYYCSQNTHVPPTFGQGTKVEIERTVAAPSVFIFPPSDEQLKSGTASVVCLLNNFYPREAKVQWKVDNALQSGNSQESVTEQDSKDSTYSLSSTLTLSKADYEKHKVYACEVTHQGLSSPVTKSFNRGEC	172 % of HeCon Ab (=100)	105 % of HeCon Ab (=100)	0.61
GpH7-A5/GpH7-B3 variant L328_10E/GpL16-k0 (antibody, human IgG1, kappa, Heterodimerized anti-glypican-3 IgG1; mutation in one H chain only; also called He Ab) heavy 1: not shown heavy 2: not shown light: DIVMTQSPLSLPVTPGEPASISCQASESLVHSNRNTYLHWYLQKPGQSPQLLIYKVSNRFSGVPDRFSGSGSGTDFTLKISRVEAEDVGVYYCSQNTHVPPTFGQGTKVEIERTVAAPSVFIFPPSDEQLKSGTASVVCLLNNFYPREAKVQWKVDNALQSGNSQESVTEQDSKDSTYSLSSTLTLSKADYEKHKVYACEVTHQGLSSPVTKSFNRGEC	172 % of HeCon Ab (=100)	55.5 % of HeCon Ab (=100)	0.32
GpH7-A5/GpH7-B3 variant N325_13S/GpL16-k0 (antibody, human IgG1, kappa, Heterodimerized anti-glypican-3 IgG1; mutation in one H chain only; also called He Ab) heavy 1: not shown heavy 2: not shown light: DIVMTQSPLSLPVTPGEPASISCQASESLVHSNRNTYLHWYLQKPGQSPQLLIYKVSNRFSGVPDRFSGSGSGTDFTLKISRVEAEDVGVYYCSQNTHVPPTFGQGTKVEIERTVAAPSVFIFPPSDEQLKSGTASVVCLLNNFYPREAKVQWKVDNALQSGNSQESVTEQDSKDSTYSLSSTLTLSKADYEKHKVYACEVTHQGLSSPVTKSFNRGEC	177 % of HeCon Ab (=100)	79.7 % of HeCon Ab (=100)	0.45
GpH7-A5/GpH7-B3 variant L328_05P/GpL16-k0 (antibody, human IgG1, kappa, Heterodimerized anti-glypican-3 IgG1; mutation in one H chain only; also called He Ab) heavy 1: not shown heavy 2: not shown light: DIVMTQSPLSLPVTPGEPASISCQASESLVHSNRNTYLHWYLQKPGQSPQLLIYKVSNRFSGVPDRFSGSGSGTDFTLKISRVEAEDVGVYYCSQNTHVPPTFGQGTKVEIERTVAAPSVFIFPPSDEQLKSGTASVVCLLNNFYPREAKVQWKVDNALQSGNSQESVTEQDSKDSTYSLSSTLTLSKADYEKHKVYACEVTHQGLSSPVTKSFNRGEC	65.1 % of HeCon Ab (=100)	45.4 % of HeCon Ab (=100)	0.7
GpH7-A5/GpH7-B3 variant L328_15Y/GpL16-k0 (antibody, human IgG1, kappa, Heterodimerized anti-glypican-3 IgG1; mutation in one H chain only; also called He Ab) heavy 1: not shown heavy 2: not shown light: DIVMTQSPLSLPVTPGEPASISCQASESLVHSNRNTYLHWYLQKPGQSPQLLIYKVSNRFSGVPDRFSGSGSGTDFTLKISRVEAEDVGVYYCSQNTHVPPTFGQGTKVEIERTVAAPSVFIFPPSDEQLKSGTASVVCLLNNFYPREAKVQWKVDNALQSGNSQESVTEQDSKDSTYSLSSTLTLSKADYEKHKVYACEVTHQGLSSPVTKSFNRGEC	193 % of HeCon Ab (=100)	90 % of HeCon Ab (=100)	0.47
GpH7-A5/GpH7-B3 variant L328_03V/GpL16-k0 (antibody, human IgG1, kappa, Heterodimerized anti-glypican-3 IgG1; mutation in one H chain only; also called He Ab) heavy 1: not shown heavy 2: not shown light: DIVMTQSPLSLPVTPGEPASISCQASESLVHSNRNTYLHWYLQKPGQSPQLLIYKVSNRFSGVPDRFSGSGSGTDFTLKISRVEAEDVGVYYCSQNTHVPPTFGQGTKVEIERTVAAPSVFIFPPSDEQLKSGTASVVCLLNNFYPREAKVQWKVDNALQSGNSQESVTEQDSKDSTYSLSSTLTLSKADYEKHKVYACEVTHQGLSSPVTKSFNRGEC	126 % of HeCon Ab (=100)	97.8 % of HeCon Ab (=100)	0.78
GpH7-A5/GpH7-B3 variant L328_09D/GpL16-k0 (antibody, human IgG1, kappa, Heterodimerized anti-glypican-3 IgG1; mutation in one H chain only; also called He Ab) heavy 1: not shown heavy 2: not shown light: DIVMTQSPLSLPVTPGEPASISCQASESLVHSNRNTYLHWYLQKPGQSPQLLIYKVSNRFSGVPDRFSGSGSGTDFTLKISRVEAEDVGVYYCSQNTHVPPTFGQGTKVEIERTVAAPSVFIFPPSDEQLKSGTASVVCLLNNFYPREAKVQWKVDNALQSGNSQESVTEQDSKDSTYSLSSTLTLSKADYEKHKVYACEVTHQGLSSPVTKSFNRGEC	199 % of HeCon Ab (=100)	58.5 % of HeCon Ab (=100)	0.29
GpH7-A5/GpH7-B3 variant I332_10E/GpL16-k0 (antibody, human IgG1, kappa, Heterodimerized anti-glypican-3 IgG1; mutation in one H chain only; also called He Ab) heavy 1: not shown heavy 2: not shown light: DIVMTQSPLSLPVTPGEPASISCQASESLVHSNRNTYLHWYLQKPGQSPQLLIYKVSNRFSGVPDRFSGSGSGTDFTLKISRVEAEDVGVYYCSQNTHVPPTFGQGTKVEIERTVAAPSVFIFPPSDEQLKSGTASVVCLLNNFYPREAKVQWKVDNALQSGNSQESVTEQDSKDSTYSLSSTLTLSKADYEKHKVYACEVTHQGLSSPVTKSFNRGEC	142 % of HeCon Ab (=100)	108 % of HeCon Ab (=100)	0.76
GpH7-A5/GpH7-B3 variant L328_07I/GpL16-k0 (antibody, human IgG1, kappa, Heterodimerized anti-glypican-3 IgG1; mutation in one H chain only; also called He Ab) heavy 1: not shown heavy 2: not shown light: DIVMTQSPLSLPVTPGEPASISCQASESLVHSNRNTYLHWYLQKPGQSPQLLIYKVSNRFSGVPDRFSGSGSGTDFTLKISRVEAEDVGVYYCSQNTHVPPTFGQGTKVEIERTVAAPSVFIFPPSDEQLKSGTASVVCLLNNFYPREAKVQWKVDNALQSGNSQESVTEQDSKDSTYSLSSTLTLSKADYEKHKVYACEVTHQGLSSPVTKSFNRGEC	160 % of HeCon Ab (=100)	93.9 % of HeCon Ab (=100)	0.59
GpH7-A5/GpH7-B3 variant L328_04F/GpL16-k0 (antibody, human IgG1, kappa, Heterodimerized anti-glypican-3 IgG1; mutation in one H chain only; also called He Ab) heavy 1: not shown heavy 2: not shown light: DIVMTQSPLSLPVTPGEPASISCQASESLVHSNRNTYLHWYLQKPGQSPQLLIYKVSNRFSGVPDRFSGSGSGTDFTLKISRVEAEDVGVYYCSQNTHVPPTFGQGTKVEIERTVAAPSVFIFPPSDEQLKSGTASVVCLLNNFYPREAKVQWKVDNALQSGNSQESVTEQDSKDSTYSLSSTLTLSKADYEKHKVYACEVTHQGLSSPVTKSFNRGEC	219 % of HeCon Ab (=100)	71.7 % of HeCon Ab (=100)	0.33
GpH7-A5/GpH7-B3 variant A330_05P/GpL16-k0 (antibody, human IgG1, kappa, Heterodimerized anti-glypican-3 IgG1; mutation in one H chain only; also called He Ab) heavy 1: not shown heavy 2: not shown light: DIVMTQSPLSLPVTPGEPASISCQASESLVHSNRNTYLHWYLQKPGQSPQLLIYKVSNRFSGVPDRFSGSGSGTDFTLKISRVEAEDVGVYYCSQNTHVPPTFGQGTKVEIERTVAAPSVFIFPPSDEQLKSGTASVVCLLNNFYPREAKVQWKVDNALQSGNSQESVTEQDSKDSTYSLSSTLTLSKADYEKHKVYACEVTHQGLSSPVTKSFNRGEC	137 % of HeCon Ab (=100)	85.7 % of HeCon Ab (=100)	0.63
GpH7-A5/GpH7-B3 variant L328_20W/GpL16-k0 (antibody, human IgG1, kappa, Heterodimerized anti-glypican-3 IgG1; mutation in one H chain only; also called He Ab) heavy 1: not shown heavy 2: not shown light: DIVMTQSPLSLPVTPGEPASISCQASESLVHSNRNTYLHWYLQKPGQSPQLLIYKVSNRFSGVPDRFSGSGSGTDFTLKISRVEAEDVGVYYCSQNTHVPPTFGQGTKVEIERTVAAPSVFIFPPSDEQLKSGTASVVCLLNNFYPREAKVQWKVDNALQSGNSQESVTEQDSKDSTYSLSSTLTLSKADYEKHKVYACEVTHQGLSSPVTKSFNRGEC	235 % of HeCon Ab (=100)	113 % of HeCon Ab (=100)	0.48
GpH7-A5/GpH7-B3 variant L328_06M/GpL16-k0 (antibody, human IgG1, kappa, Heterodimerized anti-glypican-3 IgG1; mutation in one H chain only; also called He Ab) heavy 1: not shown heavy 2: not shown light: DIVMTQSPLSLPVTPGEPASISCQASESLVHSNRNTYLHWYLQKPGQSPQLLIYKVSNRFSGVPDRFSGSGSGTDFTLKISRVEAEDVGVYYCSQNTHVPPTFGQGTKVEIERTVAAPSVFIFPPSDEQLKSGTASVVCLLNNFYPREAKVQWKVDNALQSGNSQESVTEQDSKDSTYSLSSTLTLSKADYEKHKVYACEVTHQGLSSPVTKSFNRGEC	142 % of HeCon Ab (=100)	104 % of HeCon Ab (=100)	0.73
GpH7-A5/GpH7-B3 variant A327_18N/GpL16-k0 (antibody, human IgG1, kappa, Heterodimerized anti-glypican-3 IgG1; mutation in one H chain only; also called He Ab) heavy 1: not shown heavy 2: not shown light: DIVMTQSPLSLPVTPGEPASISCQASESLVHSNRNTYLHWYLQKPGQSPQLLIYKVSNRFSGVPDRFSGSGSGTDFTLKISRVEAEDVGVYYCSQNTHVPPTFGQGTKVEIERTVAAPSVFIFPPSDEQLKSGTASVVCLLNNFYPREAKVQWKVDNALQSGNSQESVTEQDSKDSTYSLSSTLTLSKADYEKHKVYACEVTHQGLSSPVTKSFNRGEC	113 % of HeCon Ab (=100)	66.8 % of HeCon Ab (=100)	0.59
GpH7-A5/GpH7-B3 variant A327_14T/GpL16-k0 (antibody, human IgG1, kappa, Heterodimerized anti-glypican-3 IgG1; mutation in one H chain only; also called He Ab) heavy 1: not shown heavy 2: not shown light: DIVMTQSPLSLPVTPGEPASISCQASESLVHSNRNTYLHWYLQKPGQSPQLLIYKVSNRFSGVPDRFSGSGSGTDFTLKISRVEAEDVGVYYCSQNTHVPPTFGQGTKVEIERTVAAPSVFIFPPSDEQLKSGTASVVCLLNNFYPREAKVQWKVDNALQSGNSQESVTEQDSKDSTYSLSSTLTLSKADYEKHKVYACEVTHQGLSSPVTKSFNRGEC	89.4 % of HeCon Ab (=100)	45.6 % of HeCon Ab (=100)	0.51
GpH7-A5/GpH7-B3 variant A327_10E/GpL16-k0 (antibody, human IgG1, kappa, Heterodimerized anti-glypican-3 IgG1; mutation in one H chain only; also called He Ab) heavy 1: not shown heavy 2: not shown light: DIVMTQSPLSLPVTPGEPASISCQASESLVHSNRNTYLHWYLQKPGQSPQLLIYKVSNRFSGVPDRFSGSGSGTDFTLKISRVEAEDVGVYYCSQNTHVPPTFGQGTKVEIERTVAAPSVFIFPPSDEQLKSGTASVVCLLNNFYPREAKVQWKVDNALQSGNSQESVTEQDSKDSTYSLSSTLTLSKADYEKHKVYACEVTHQGLSSPVTKSFNRGEC	140 % of HeCon Ab (=100)	91.3 % of HeCon Ab (=100)	0.65
